Experimental data from patent US20230024461A1, “METHODS FOR DUAL DNA/PROTEIN TAGGING OF OPEN CHROMATIN” (Beth Israel Deaconess Medical Center, Inc., priority 2019, published 2023).
Entries after “also recorded” stand apart in the source; their conditions may differ.

System: HT1080 cells
Assay: Co-immunofluorescence/ATAC-see analysis
Type: cell-based, human
Method: Co-immunofluorescence/ATAC-see analysis. ATAC-see was performed similarly as previously described with slight modifications (Chen et al., Nat. Methods 13:1013-1020, 2016). Enzyme and transposon DNA were mixed at a 1:1.25 enzyme:MEDS-A/B-AF647 molar ratio and incubated at room temperature for 1 hour. Adherent cells were grown on glass coverslips (Fisher Scientific, 12-540A) until 80-90% confluent, washed with 1×PBS, fixed with 1% formaldehyde (Electron Microscopy Services) in 1×PBS for 10 minutes, and washed twice with ice-cold 1×PBS. Suspension cells were washed and resuspended with 1×PBS. 50,000 cells were added to poly-lysine slides and incubated at room temperature for 1 hour in a humidified chamber. An equal volume of 2% formaldehyde was added and incubated for 10 minutes, whereupon slides were washed twice with ice-cold 1×PBS. Immobilized cells were lysed by incubation with LB1 for 3 minutes followed by LB2 for 10 minutes at room temperature. Cells were then subject to tagmentation (20% dimethylformamide, 10 mM MgCl2, 20 mM Tris-HCl pH 7.5, 33% 1×PBS, 0.01% digitonin, 0.1% Tween-20, and either 80 pmol enzyme equivalent of enzyme:DNA complex in a total volume of 100 μL for adherent cells or 10 pmol enzyme equivalent of enzyme:DNA complex in a total volume of 50 μL for suspension cells) for 30 minutes at 37° C. in a humidified chamber. Subsequently, cells were washed with 50 mM EDTA and 0.01% SDS in 1×PBS three times for 15 minute each at 55° C., lysed for 10 minutes with 0.5% Triton X-100 in 1×PBS at room temperature, and blocked with 1% BSA and 10% goat serum in PBS-T for 1 hour in a humidified chamber. Primary antibody was added to slides in 1% BSA/PBS-T and incubated at 4° C. overnight; slides were then washed and subjected to secondary antibody staining for 1 hour. Slides were washed with PBS-T three times for 15 minutes each, stained with DAPI (Sigma, 1 μg/mL) for 1 minute, washed with PBS for 10 minutes, and mounted with Fluorescence Mounting Medium (Dako). Confocal microscopy images were taken with an LSM 880 Axio Imager 2 at 63× magnification (Zeiss). Images were processed with Fiji/ImageJ v2.0.0.
Primary antibodies used were anti-RNA polymerase II CTD repeat YSPTSPS (phospho S2) (rabbit, Abcam ab5095, 1:500), anti-H3K27Ac (rabbit, Abcam ab4729, 1:500), anti-H3K9me3 (rabbit, Abcam ab8898, 1:500), anti-CCDCl2 (rabbit, Atlas Antibodies HPA060530, 1:200), anti-SNRPA (mouse, 3F9-1F7, Sigma-Aldrich WH0006626M1, 1:100). […]
Quantitative image analyses were performed with CellProfiler v3.1.5. […] Pearson correlation coefficients were determined by comparing ATAC-see pixel intensities with corresponding immunofluorescence intensity values within each ROI to assess the nucleus-to-nucleus variation in colocalization. […]

B1: TP3: Tn5 transposase-AEAAAKEAAAKA linker-APEX2 peroxidase fusion, C-terminal FLAG; amino acid SEQ ID NO: 27 (protein)
chain: MITSALHRAADWAKSVFSSAALGDPRRTARLVNVAAQLAKYSGKSITISSEGSKAMQEGAYRFIRNPNVSAEAIRKAGAMQTVKLAQEFPELLAIEDTTSLSYRHQVAEELGKLGSIQDKSRGWWVHSVLLLEATTFRTVGLLHQEWWMRPDDPADADEKESGKWLAAAATSRLRMGSMMSNVIAVCDREADIHAYLQDKLAHNERFVVRSKHPRKDVESGLYLYDHLKNQPELGGYQISIPQKGVVDKRGKRKNRPARKASLSLRSGRITLKQGNITLNAVLAEEINPPKGETPLKWLLLTSEPVESLAQALRVIDIYTHRWRIEEFHKAWKTGAGAERQRMEEPDNLERMVSILSFVAVRLLQLRESFTPPQALRAQGLLKEAEHVESQSAETVLTPDECQLLGYLDKGKRKRKEKAGSLQWAYMAIARLGGFMDSKRTGIASWGALWEGWEALQSKLDGFLAAKDLMAQGIKIAEAAAKEAAAKAGKSYPTVSADYQDAVEKAKKKLRGFIAEKRCAPLMLRLAFHSAGTFDKGTKTGGPFGTIKHPAELAHSANNGLDIAVRLLEPLKAEFPILSYADFYQLAGVVAVEVTGGPKVPFHPGREDKPEPPPEGRLPDPTKGSDHLRDVFGKAMGLTDQDIVALSGGHTIGAAHKERSGFEGPWTSNPLIFDNSYFTELLSGEKEGLLQLPSDKALLSDPVFRPLVDKYAADEDAFFADYAEAHQKLSELGFADADYKDDDDK
modifications: C-terminal FLAG
ATAC-see correlation with H3K9me3 immunofluorescence (marker of transcriptionally inactive chromatin): poorly correlating; also recorded: similarly poor correlations | ATAC-see correlation with H3K27Ac and RNAPII S2P immunofluorescence signal (markers of transcriptionally active chromatin): strongly correlating; also recorded: similarly positive correlations
